Test results as given in paper PMC4657047, “Structure of the Human Factor VIII C2 Domain in Complex with the 3E6 Inhibitory Antibody” (Scientific Reports, 2015).

Target: T1, human blood coagulation factor VIII C2 domain (human, UniProt P00451)
T1 construct: C2 domain of human blood coagulation factor VIII; pET15b with N-terminal His6 tag and a thrombin cleavage site; also called fVIII C2 domain
Assay: crystal structure; C2 domain/3E6 FAB binary complex formed at 37 °C for 30 minutes with 1.5-fold molar excess of C2 domain, separated on Superdex 75; crystals from 10 mM MES (pH 6.4-6.8), 20% (w/v) PEG 8000; two complexes in the asymmetric unit; 2.61 Å
Conditions: both partners purified

T1 sequence (P00451 2190-2351): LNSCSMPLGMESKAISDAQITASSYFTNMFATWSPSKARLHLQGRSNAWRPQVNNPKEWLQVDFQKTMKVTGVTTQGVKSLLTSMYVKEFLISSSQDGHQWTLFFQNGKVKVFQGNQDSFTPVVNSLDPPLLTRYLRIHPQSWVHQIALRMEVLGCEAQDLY

B1: 3E6 antigen-binding fragment (FAB) of the classical anti-fVIII C2 domain inhibitory antibody 3E6 (Fab, V domains shown)
VH: QIQLVQSGPELKKPGKTVKISCKASDYTFTDYSLHWVKQAPGKGLKWMGWINTETGDPAYADDFKGRFAFSLETSVRTAYLQINNLKNEDTAIYFCAREDDGLASWGQGTTLTVSS
VL: QIVLTQSPAIMSASPGEKVTMTCSASSTVSYMYWYQQKPGSSPRFLISDTSNLASGVPVRFSGSGSGTSYSLTISRIEAEDAATYYCQHWSSYPLTFGGGTKLELK
notes: heavy chain of the 3E6 FAB is chain A (complex 1) and chain E (complex 2) of PDB 4XZU; light chain of the 3E6 FAB is chain B (complex 1) and chain F (complex 2) of PDB 4XZU; Fab made by papain cleavage of the murine monoclonal IgG; complex 1 (chains A, B) is the more complete model; also called 3E6 FAB; 3E6 antibody
binding result: binds
